From US20230390362A1, “USE OF TRIGONAL AGONIST HAVING ACTIVITIES TO ALL OF GLUCAGON, GLP-1, AND GIP RECEPTORS IN TREATMENT OF SEQUELAE FOLLOWING RESPIRATORY INFECTIOUS DISEASES” (HANMI PHARM. CO., LTD., priority 2020, published 2023)
Positions of bridges follow the written chain, without caps; N, C: chain ends. Non-standard residues stand in square brackets, D forms with d. No end group written: not given here. *: point of attachment. Acetyl(2-(4-imidazolyl)) = O=C(Cc1c[nH]cn1)*; Aib = CC(C)(N)C(=O)O

T1: human GIP receptor (human, UniProt P48546 22-466)
T1 sequence (looked up): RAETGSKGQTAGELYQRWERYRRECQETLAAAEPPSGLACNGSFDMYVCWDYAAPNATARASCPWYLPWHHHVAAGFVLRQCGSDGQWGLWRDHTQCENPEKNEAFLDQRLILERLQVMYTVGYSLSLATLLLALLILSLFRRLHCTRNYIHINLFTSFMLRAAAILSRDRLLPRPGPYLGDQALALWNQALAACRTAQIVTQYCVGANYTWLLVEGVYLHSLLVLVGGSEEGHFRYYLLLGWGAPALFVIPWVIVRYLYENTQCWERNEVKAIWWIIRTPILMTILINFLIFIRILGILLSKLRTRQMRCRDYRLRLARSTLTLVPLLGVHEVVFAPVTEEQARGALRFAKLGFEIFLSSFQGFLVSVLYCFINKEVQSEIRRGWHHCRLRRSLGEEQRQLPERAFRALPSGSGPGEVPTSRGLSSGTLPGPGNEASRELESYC


Key:
Test in all cases: cell-based or functional assay
[1] = biological target: human GLP-1 receptor (human, UniProt P43220 24-463)
[2] = biological target: human GCG receptor (human, UniProt P47871 26-477)
[3] = biological target: T1, human GIP receptor

human GCG receptor, sequence (P47871 26-477): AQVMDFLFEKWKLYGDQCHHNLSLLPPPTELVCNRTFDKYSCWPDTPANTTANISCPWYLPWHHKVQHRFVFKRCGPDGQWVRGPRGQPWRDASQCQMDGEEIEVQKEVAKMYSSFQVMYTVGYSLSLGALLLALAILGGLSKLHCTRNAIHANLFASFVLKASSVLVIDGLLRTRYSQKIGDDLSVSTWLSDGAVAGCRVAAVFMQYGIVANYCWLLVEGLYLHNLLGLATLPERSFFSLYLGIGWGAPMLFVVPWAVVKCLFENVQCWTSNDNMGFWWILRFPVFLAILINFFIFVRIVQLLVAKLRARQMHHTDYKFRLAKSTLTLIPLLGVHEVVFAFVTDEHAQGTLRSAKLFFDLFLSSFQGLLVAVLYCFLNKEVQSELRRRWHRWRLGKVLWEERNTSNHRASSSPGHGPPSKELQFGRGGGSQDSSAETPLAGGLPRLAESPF

Row | Binder | In vitro activity relative to native peptide (%), vs. GLP-1 (cAMP EC50) [1] | In vitro activity relative to native peptide (%), vs. Glucagon (cAMP EC50) [2] | In vitro activity relative to native peptide (%), vs. GIP (cAMP EC50) [3]
1 | {Acetyl(2-(4-imidazolyl))}-GQGTFTSDLSIQYEEEAQQDFVEWLKDTGPSSGAPPPSHG [trigonal agonist of SEQ ID NO: 20] | < 0.1% | < 0.1% | < 0.1%
2 | H[Aib]QGTFTSDVSSYLLGQAAKQFIAWLVKGGGPSSGAPPPSC [trigonal agonist of SEQ ID NO: 3] | 1.8% | < 0.1% | < 0.1%
3 | H[Aib]QGTFTSDYSKYLDEKAAKEFVQWLLNTC (bridge 16-20) [trigonal agonist of SEQ ID NO: 29] | 38.5% | 6% | < 0.1%
4 | H[Aib]QGTFTSDYSKYLDEKACKDFVQWLLDGGPSSGAPPPS (bridge 16-20) [trigonal agonist of SEQ ID NO: 32] | 151% | 1.7% | 8.8%
5 | H[Aib]QGTFTSDYSKYLDEKAQKEFVQWLLDTC (bridge 16-20) [trigonal agonist of SEQ ID NO: 30] | 142% | 0.7% | 0.8%
6 | Y[Aib]QGTFTSDYSKYLDECRAKEFVQWLLAQKGKKNDWKHNIT (bridge 16-20) [trigonal agonist of SEQ ID NO: 23] | 4.01% | 9.3% | < 0.1%
7 | Y[Aib]QGTFTSDYSKCLDEKRAKEFVQWLLDHHPSSGQPPPS (bridge 16-20) [trigonal agonist of SEQ ID NO: 22] | 20.1% | 140% | 59.7%
8 | Y[Aib]QGTFTSDYSKYLDECRAKEFVQWLLDHHPSSGQPPPS (bridge 16-20) [trigonal agonist of SEQ ID NO: 21] | 17.8% | 267% | 22.7%
9 | Y[Aib]QGTFTSDYSKALDEKAAKDFVNWLLDHHPSSGQPPPSC (bridge 16-20) [trigonal agonist of SEQ ID NO: 99] | 20.9% | 14.9% | 57.7%
10 | {Acetyl(2-(4-imidazolyl))}-GQGTFTSDLSKQMDSERAREFIEWLKNTGPSSGAPPPSHG [trigonal agonist of SEQ ID NO: 18] | < 0.1% | < 0.1% | < 0.1%
11 | H[Aib]QGTFTSDCSKYLDSRAAQDFVQWLLDGGPSSGAPPPS [trigonal agonist of SEQ ID NO: 26] | 64.5% | 0.2% | < 0.1%
12 | {Acetyl(2-(4-imidazolyl))}-GQGTFTSDLSKQMDEERAREFIEWLLAQKPSSGAPPPSHG [trigonal agonist of SEQ ID NO: 17] | 0.2% | < 0.1% | < 0.1%
13 | Y[Aib]QGTFTSDYSKALDEKAAKDFVNWLLDQHPSSGQPPPSC (bridge 16-20) [trigonal agonist of SEQ ID NO: 102] | 23.3% | 29.5% | 58%
14 | {Acetyl(2-(4-imidazolyl))}-GEGTFISDLSKYMDEQAVQLFVEWLMAGGPSSGAPPPSHG [trigonal agonist of SEQ ID NO: 12] | 0.4% | < 0.1% | < 0.1%
15 | H[Aib]QGTFTSDYSKYLDEKRAQEFVCWLLAQKGKKNDWKHNIT [trigonal agonist of SEQ ID NO: 28] | 17.2% | 1.6% | < 0.1%
16 | Y[Aib]QGTFTSDYSKALDEKAAKEFVQWLLDQHPSSGQPPPSC (bridge 16-20) [trigonal agonist of SEQ ID NO: 100] | 42.2% | 12.7% | 118%
17 | H[Aib]QGTFTSDYSKYLDEKACKEFVQWLLAQ (bridge 16-20) [trigonal agonist of SEQ ID NO: 31] | 135% | 2.2% | 2.4%
18 | Y[Aib]QGTFTSDYSKALDEKAAKEFVNWLLDQHPSSGQPPPSC (bridge 16-20) [trigonal agonist of SEQ ID NO: 101] | 23.2% | 13.9% | 40.1%
19 | {Acetyl(2-(4-imidazolyl))}-GQGTFTSDYSIQLDEIAVRDFVEWLKNGGPSSGAPPPSHG [trigonal agonist of SEQ ID NO: 14] | 28% | < 0.1% | < 0.1%
20 | {Acetyl(2-(4-imidazolyl))}-GEGTFTSDLSKYLDSRRQQLFVQWLKAGGPSSGAPPPSHG [trigonal agonist of SEQ ID NO: 11] | 1.4% | < 0.1% | < 0.1%
21 | {Acetyl(2-(4-imidazolyl))}-GQGTFTSDLSKQMDSEAQQLFIEWLKNGGPSSGAPPPSHG [trigonal agonist of SEQ ID NO: 16] | 2.1% | < 0.1% | < 0.1%
22 | {Acetyl(2-(4-imidazolyl))}-GQGTFTSDLSIQYDSEHQRDFIEWLKDTGPSSGAPPPSHG [trigonal agonist of SEQ ID NO: 19] | < 0.1% | < 0.1% | < 0.1%
23 | H[Aib]QGTFTSDVSSYLDGQAQKEFIAWLVKGC [trigonal agonist of SEQ ID NO: 2] | 5.9% | < 0.1% | < 0.1%
24 | H[Aib]QGTFTSDCSKYLDERAAQDFVQWLLDGGPSSGAPPPS [trigonal agonist of SEQ ID NO: 25] | 82.6% | 0.1% | < 0.1%
25 | H[Aib]QGTFTSDYSIAMDEIHQKDFVNWLLAQKC (bridge 16-20) [trigonal agonist of SEQ ID NO: 33] | 24.5% | < 0.1% | 10.4%
26 | {Acetyl(2-(4-imidazolyl))}-GEGTFISDYSIQLDEIAVQDFVEWLLAQKPSSGAPPPSHG [trigonal agonist of SEQ ID NO: 13] | < 0.1% | < 0.1% | < 0.1%
27 | Y[Aib]QGTFTSDYSKYLDECRAKEFVQWLKNGGPSSGAPPPS (bridge 16-20) [trigonal agonist of SEQ ID NO: 24] | 41.2% | 9.3% | < 0.1%
28 | H[Aib]QGTFTSDYSKYLDERACQDFVQWLLDQGGPSSGAPPPS [trigonal agonist of SEQ ID NO: 27] | 83.1% | 0.8% | 0.9%
